The supplement of paper PMC7877785
± gives the uncertainty stated by the source.

Assay: self-splicing fitness, log relative to wild type (ln ratio); higher = more splicing; Tetrahymena group I intron in knt gene, E. coli kanamycin selection, DiMSum; sequences stand for … in CUCUCU…GGAGGGAAAAGUUAUCAGGCAUGCACCUGGUAGCUAGUCUUUAAACCAAUAGAUUGCAUCGGUUUAAAAGGCAAGACCGUCAAAUUGCGGGAAAGGGGUCAACAGCCGUUCAGUACCAAGUCUCAGGGGAAACUUUGAGAUGGCCUUGCAAAGGGUAUGGUAAUAAGCUGACGGACAUGGUCCUAACCACGCAGCCAAGUCCUAAGUCAACAGAUCUUCUGUUGAUAUGGAUGCAGUUCACAGACUAAAUGUCGGUCGGGGAAGAUGUAUUCUUCUCAUAAGAUAUAGUCGGACCUCUCCUUAAUGGGAGCUAGCGGAUGAAGUGAUGCAACACUGGAGCCGCUGGGAACUAAUUUGUAUGCGAAAGUAUAUUGAUUAGUUUUGGAGUACUCGUGGUCG
Outline: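 The eight P1ex-region nucleotides of an intron in the knt kanamycin-resistance gene on pET-22b(+) were all randomised and the library put into E. coli BL21(DE3). Six replicate transformations were grown overnight at 37°C or 30°C on LB agar with or without 25 μg/mL kanamycin, together with 100 μg/mL carbenicillin, 50 μM IPTG and 0.2% rhamnose. Colonies were pooled and amplicon-sequenced on an Illumina HiSeq 2500. Fitness from DiMSum is the error-weighted combination of wild-type-normalised replicate fold changes, kanamycin over none.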

| Sequence | self-splicing fitness (ln) (30 °C) | self-splicing fitness (ln) (37 °C) |
| --- | --- | --- |
| GAAUAGCAAUAUUACGAGGC | -3.58 ± 0.38 | -2.2 ± 0.3 |
| GAAUAGCAAUAUUACGAGGG | -3.39 ± 0.18 | -3.25 ± 0.19 |
| GAAUAGCAAUAUUACGAUAC | -1.47 ± 0.15 | -0.123 ± 0.17 |
| GAAUAGCAAUAUUACGAUGA | -1.2 ± 0.083 | -0.62 ± 0.093 |
| GAAUAGCAAUAUUACGAUUG | -1.4 ± 0.1 | -0.331 ± 0.13 |
| GAAUAGCAAUAUUACGCAGA | -2.53 ± 0.16 | -1.34 ± 0.14 |
| GAAUAGCAAUAUUACGCCAU | – | -1.49 ± 0.36 |
| GAAUAGCAAUAUUACGCGCU | -0.615 ± 0.13 | -0.0137 ± 0.15 |
| GAAUAGCAAUAUUACGGAGA | -3.11 ± 0.47 | -2.56 ± 0.45 |
| GAAUAGCAAUAUUACGGAGU | -2.02 ± 0.18 | -2.03 ± 0.23 |
| GAAUAGCAAUAUUACGGCUU | 0.268 ± 0.075 | 0.303 ± 0.11 |
| GAAUAGCAAUAUUACGGGAU | -2.06 ± 0.13 | -2.06 ± 0.16 |
| GAAUAGCAAUAUUACGGUCC | -2.78 ± 0.24 | -0.862 ± 0.25 |
| GAAUAGCAAUAUUACGGUGG | -3.06 ± 0.24 | -1.08 ± 0.12 |
| GAAUAGCAAUAUUACGUAGU | -2.61 ± 0.12 | -1.99 ± 0.18 |
| GAAUAGCAAUAUUACGUCCC | -1.33 ± 0.12 | -0.165 ± 0.17 |
| GAAUAGCAAUAUUACGUCGU | -2 ± 0.12 | -1.35 ± 0.14 |
| GACAAGCAAUAUUACGACUC | 0.206 ± 0.1 | 0.387 ± 0.12 |
| GACAAGCAAUAUUACGAGAG | -3.18 ± 0.17 | -2.96 ± 0.21 |
| GACAAGCAAUAUUACGAGCU | -1.28 ± 0.08 | -0.288 ± 0.11 |
| GACAAGCAAUAUUACGAUGC | -1.44 ± 0.091 | -0.732 ± 0.11 |
| GACAAGCAAUAUUACGCAGU | -3.47 ± 0.35 | -1.85 ± 0.22 |
| GACAAGCAAUAUUACGCAUC | -4.33 ± 0.28 | -3.91 ± 0.42 |
| GACAAGCAAUAUUACGCGAA | -2.8 ± 0.16 | -1.88 ± 0.14 |

| Sequence | self-splicing fitness (ln) (30 °C) | self-splicing fitness (ln) (37 °C) |
| --- | --- | --- |
| GACAAGCAAUAUUACGCGGU | -3.2 ± 0.24 | -2.48 ± 0.24 |
| GACAAGCAAUAUUACGCGUC | -4.02 ± 0.22 | -3.45 ± 0.39 |
| GACAAGCAAUAUUACGCUCC | -3.8 ± 0.24 | -2.56 ± 0.27 |
| GACAAGCAAUAUUACGGAAU | -1.92 ± 0.11 | -1.35 ± 0.12 |
| GACAAGCAAUAUUACGGCCC | -0.324 ± 0.16 | 0.203 ± 0.28 |
| GACAAGCAAUAUUACGGCUU | -0.995 ± 0.068 | -0.505 ± 0.1 |
| GACAAGCAAUAUUACGGGCU | -1.63 ± 0.087 | -1.39 ± 0.097 |
| GACAAGCAAUAUUACGGGGA | -3.05 ± 0.12 | -1.75 ± 0.1 |
| GACAAGCAAUAUUACGUACU | -1.16 ± 0.059 | -0.397 ± 0.079 |
| GACAAGCAAUAUUACGUCGC | -3.86 ± 0.25 | -2.1 ± 0.21 |
| GACAAGCAAUAUUACGUCUA | -2.01 ± 0.079 | -1.04 ± 0.082 |
| GACAAGCAAUAUUACGUGCA | -0.912 ± 0.06 | 0.0273 ± 0.077 |
| GACAAGCAAUAUUACGUGCU | -2.93 ± 0.082 | -1.82 ± 0.078 |
| GACAAGCAAUAUUACGUUAC | -3.32 ± 0.15 | -2.36 ± 0.17 |
| GACAAGCAAUAUUACGUUCC | -3.15 ± 0.24 | -2.8 ± 0.31 |
| GACCAGCAAUAUUACGAAGC | -0.849 ± 0.062 | -0.511 ± 0.093 |
| GACCAGCAAUAUUACGACAC | -0.384 ± 0.065 | -0.0663 ± 0.085 |
| GACCAGCAAUAUUACGACAG | -3.85 ± 0.18 | -2.22 ± 0.18 |
| GACCAGCAAUAUUACGACGG | -2.67 ± 0.15 | -1.99 ± 0.18 |
| GACCAGCAAUAUUACGACUA | -0.158 ± 0.056 | -0.0882 ± 0.062 |
| GACCAGCAAUAUUACGAGUC | -3.82 ± 0.23 | -2.06 ± 0.18 |
| GACCAGCAAUAUUACGAGUG | -0.669 ± 0.055 | -0.33 ± 0.084 |
| GACCAGCAAUAUUACGAUAC | -0.984 ± 0.056 | -0.634 ± 0.066 |
| GACCAGCAAUAUUACGCAUG | -1.2 ± 0.073 | -1.65 ± 0.09 |

| Sequence | self-splicing fitness (ln) (30 °C) | self-splicing fitness (ln) (37 °C) |
| --- | --- | --- |
| GACCAGCAAUAUUACGCUAG | -1.29 ± 0.087 | -0.88 ± 0.1 |
| GACCAGCAAUAUUACGGCAC | -0.0527 ± 0.076 | 0.491 ± 0.11 |
| GACCAGCAAUAUUACGGCAG | -3.74 ± 0.3 | -3.28 ± 0.25 |
| GACCAGCAAUAUUACGGCCA | -0.323 ± 0.077 | 0.208 ± 0.13 |
| GACCAGCAAUAUUACGGCGG | -2.55 ± 0.2 | -2.79 ± 0.27 |
| GACCAGCAAUAUUACGGGGU | -3.79 ± 0.19 | -1.82 ± 0.14 |
| GACCAGCAAUAUUACGGUCG | -1.98 ± 0.077 | -1.47 ± 0.11 |
| GACCAGCAAUAUUACGGUCU | -3.61 ± 0.17 | -3.16 ± 0.21 |
| GACCAGCAAUAUUACGUAAC | -0.981 ± 0.065 | -0.475 ± 0.079 |
| GACCAGCAAUAUUACGUAAG | -1.55 ± 0.052 | -0.817 ± 0.076 |
| GACCAGCAAUAUUACGUACA | -0.568 ± 0.067 | 0.0774 ± 0.083 |
| GACCAGCAAUAUUACGUAUC | -0.803 ± 0.1 | -0.659 ± 0.11 |
| GACCAGCAAUAUUACGUCCG | -4.09 ± 0.27 | -2.12 ± 0.17 |
| GACCAGCAAUAUUACGUCUA | -1.44 ± 0.085 | -0.724 ± 0.081 |
| GACCAGCAAUAUUACGUUCA | -0.884 ± 0.1 | -0.163 ± 0.097 |
| GACCAGCAAUAUUACGUUGC | -1.78 ± 0.067 | -1.56 ± 0.1 |
| GACGAGCAAUAUUACGACGC | -0.758 ± 0.13 | -0.747 ± 0.15 |
| GACGAGCAAUAUUACGAGUC | -3.37 ± 0.2 | -2.85 ± 0.31 |
| GACGAGCAAUAUUACGAGUG | -4.04 ± 0.31 | -2.63 ± 0.19 |
| GACGAGCAAUAUUACGAUAU | -3.83 ± 0.33 | -2.15 ± 0.32 |
| GACGAGCAAUAUUACGAUUA | -2.73 ± 0.23 | -1.55 ± 0.22 |
| GACGAGCAAUAUUACGCACA | -2.32 ± 0.15 | -0.917 ± 0.14 |
| GACGAGCAAUAUUACGCACU | -1.32 ± 0.15 | -0.506 ± 0.16 |
| GACGAGCAAUAUUACGCCUG | – | -1.56 ± 0.47 |

| Sequence | self-splicing fitness (ln) (30 °C) | self-splicing fitness (ln) (37 °C) |
| --- | --- | --- |
| GACGAGCAAUAUUACGCUUU | -3.17 ± 0.46 | -0.0656 ± 0.19 |
| GACGAGCAAUAUUACGGAAA | -2.69 ± 0.3 | -1.47 ± 0.29 |
| GACGAGCAAUAUUACGGCCC | -0.0683 ± 0.45 | -0.45 ± 0.4 |
| GACGAGCAAUAUUACGGGGC | -2.83 ± 0.13 | -2.25 ± 0.16 |
| GACGAGCAAUAUUACGGUCU | -2.33 ± 0.15 | -2.8 ± 0.27 |
| GACGAGCAAUAUUACGGUGG | -3.01 ± 0.16 | -2.77 ± 0.19 |
| GACGAGCAAUAUUACGGUGU | -4.63 ± 0.45 | -2.64 ± 0.22 |
| GACGAGCAAUAUUACGUGUG | -2.9 ± 0.087 | -1.01 ± 0.077 |
| GACGAGCAAUAUUACGUUAU | -4.17 ± 0.39 | -2.36 ± 0.31 |
| GACGAGCAAUAUUACGUUUC | -2.64 ± 0.24 | -3.33 ± 0.33 |
| GACGAGCAAUAUUACGUUUU | -4.36 ± 0.28 | -1.61 ± 0.13 |
| GACUAGCAAUAUUACGAAGA | -1.87 ± 0.13 | -0.416 ± 0.13 |
| GACUAGCAAUAUUACGACCG | -0.436 ± 0.3 | -0.537 ± 0.34 |
| GACUAGCAAUAUUACGACGA | -0.416 ± 0.074 | 0.00653 ± 0.078 |
| GACUAGCAAUAUUACGAGGU | -2.34 ± 0.2 | -1.64 ± 0.2 |
| GACUAGCAAUAUUACGAGUU | -4.75 ± 0.32 | -2.74 ± 0.3 |
| GACUAGCAAUAUUACGAUAU | -0.566 ± 0.075 | -0.0805 ± 0.1 |
| GACUAGCAAUAUUACGCAAU | -1.34 ± 0.19 | -1.38 ± 0.17 |
| GACUAGCAAUAUUACGCCCG | -1.77 ± 0.24 | -0.58 ± 0.28 |
| GACUAGCAAUAUUACGCGUA | -0.78 ± 0.11 | -0.344 ± 0.097 |
| GACUAGCAAUAUUACGGCAC | -0.648 ± 0.14 | 0.581 ± 0.16 |
| GACUAGCAAUAUUACGGCCC | – | 0.226 ± 0.4 |
| GACUAGCAAUAUUACGGGCA | -0.911 ± 0.072 | 0.2 ± 0.085 |
| GACUAGCAAUAUUACGUCGA | -1.96 ± 0.11 | -0.484 ± 0.1 |
